This is an account of results in PMC4004960 (Cancer cell, 2014).

Ends that are not written are not given here.

The experiment addresses BRD4-BD2 (recombinant, NMR and fluorescence anisotropy) (UniProt O60885 333-460). As to the kind of experiment: fluorescence polarisation. In general terms: Fluorescence polarisation rises when a labelled molecule tumbles more slowly, as on binding a larger partner.

B1: Twist-K73ac/K76ac peptide (residues 68-79) (peptide, UniProt Q15672 68-79, looked up)
peptide: SPAQGK(Ac)RGK(Ac)KSA
A word on the Ki: it is the equilibrium dissociation constant of an inhibitor or competing ligand from its target. For the molecule B1, the Ki is 800 µM.
